Data reported in the supplement of paper PMC12764529.
± gives the half width of the 95% confidence interval.

Key:
[1] = folding stability dG unfold from chymotrypsin proteolysis; higher = more stable
In short: (§1)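 Only designs with AlphaFold2 dimer inter-PAE above 15 were retained; each was a mini-protein under 80 residues with no cysteine, in a PA-tagged cDNA display construct. After digestion with trypsin and chymotrypsin and sequencing, K50 was inferred by Bayesian fitting of counts, and unfolding free energy was derived per protease or combined against a sequence-predicted unfolded-state K50 and a shared folded-state K50.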

[2] = folding stability dG unfold from trypsin proteolysis; higher = more stable
In short: as §1

[3] = folding stability dG unfold (combined trypsin and chymotrypsin); higher = more stable
In short: as §1

Sequence: SAGMPIKAKVLIFDPVNPVPKEFEFDVEDLDELVEKIREELGVEVVVDPESGVVVVDTPDGSLIVIEFDSAG [r5_937_TrMRF]
- folding stability dG unfold [1]: 2.93 ± 0.077 kcal/mol
- folding stability dG unfold [2]: 3.08 ± 0.093 kcal/mol
- folding stability dG unfold [3]: 3.01 ± 0.043 kcal/mol

Sequence: SAGGSAGGSAGGSNMYIEIDEIERNPDDWYQITVKIYNPDNGEKEKITFYMPPGQEIKISAGGSAGGSAGGS [r4_133_TrROS]
- folding stability dG unfold [1]: 1.51 ± 0.12 kcal/mol
- folding stability dG unfold [2]: 0.896 ± 0.076 kcal/mol
- folding stability dG unfold [3]: 1.25 ± 0.2 kcal/mol

Sequence: SAGGSAGGMKVKIVSFDPENQEVVIYDEKTGKEIVVKAKSVEELKAALEKLGLEVEVEVLPPEESAGGSAGG [r6_27_TrROS_Hall]
- folding stability dG unfold [1]: 3.19 ± 0.26 kcal/mol
- folding stability dG unfold [2]: 2.99 ± 0.43 kcal/mol
- folding stability dG unfold [3]: 3.3 ± 0.39 kcal/mol

Sequence: SAGGSAGGSMVYTPPEVLTPVREVTITVTTSSYSPSGGTPVTSTSTVPVLVYKDPSGRTAIVPPSAGGSAGG [r6_278_JUSTAS]
- folding stability dG unfold [1]: 0.195 ± 0.19 kcal/mol
- folding stability dG unfold [2]: -0.0213 ± 0.072 kcal/mol
- folding stability dG unfold [3]: 0.159 ± 0.11 kcal/mol

Sequence: SAGGSAPGVTLVSSTSSTSTLPDGTTKSTTTTTYKSPTGTYTTTTTTTVDTSKGTTTPTTTVTPVSSAGGSA [r2_185_JUSTAS]
- folding stability dG unfold [1]: 0.61 ± 0.16 kcal/mol
- folding stability dG unfold [2]: 0.645 ± 0.064 kcal/mol
- folding stability dG unfold [3]: 0.692 ± 0.14 kcal/mol

Sequence: SAGGSAGGSAGGSEKEVEISVVLPDGYVLRVRVREVSEDGEEVEVEVELVKVKPGQKLLSAGGSAGGSAGGS [r4_72_TrROS_Hall]
- folding stability dG unfold [1]: 1.37 ± 0.079 kcal/mol
- folding stability dG unfold [2]: 1.57 ± 0.051 kcal/mol
- folding stability dG unfold [3]: 1.5 ± 0.15 kcal/mol

Sequence: SAGGLAEEIVEELKERFPGMDVDIDVKEEEDPNNGWVKITIMVRVRNPDDNKPRHEIQLDIEIPVDDSAGGS [r8_207_TrROS]
- folding stability dG unfold [1]: 1.89 ± 0.036 kcal/mol
- folding stability dG unfold [2]: 1.69 ± 0.056 kcal/mol
- folding stability dG unfold [3]: 1.82 ± 0.086 kcal/mol

Sequence: SAGGMKVEIEIEEEPETGKVKITIKIDDVEIEIEATEEEIEKLIEEIEKIKAEPKLTEDGKLVPVIGSAGGS [r8_332_TrMRF]
- folding stability dG unfold [1]: 1.8 ± 0.29 kcal/mol
- folding stability dG unfold [2]: 1.94 ± 0.24 kcal/mol
- folding stability dG unfold [3]: 1.92 ± 0.3 kcal/mol

Sequence: SAGKIEFPMPNGYWFRIEIDPENNKVKVEYSPHNGQYKVKIPGKEEVQIPIKGMPFEEMAKEIIEKLLKSAG [r5_447_TrROS]
- folding stability dG unfold [1]: 1.13 ± 0.19 kcal/mol
- folding stability dG unfold [2]: 0.776 ± 0.17 kcal/mol
- folding stability dG unfold [3]: 0.962 ± 0.4 kcal/mol

Sequence: SAGGSAGGSAPFNINDPNIGEVEIFPGPNAVILIKLPDGGYLVITNNGEDNVSIELVSDDESAGGSAGGSAG [r3_62_TrMRF]
- folding stability dG unfold [1]: 0.468 ± 0.16 kcal/mol
- folding stability dG unfold [2]: 1.72 ± 0.13 kcal/mol
- folding stability dG unfold [3]: 1.15 ± 0.15 kcal/mol

Sequence: SAGGIEVEAESERVEGGVLRVTVTAADPDGVPIVLELPVPPGAPEITEEEARELAVEAALKVAAELASAGGS [r8_123_TrMRF]
- folding stability dG unfold [1]: 0.517 ± 0.034 kcal/mol
- folding stability dG unfold [2]: 0.887 ± 0.034 kcal/mol
- folding stability dG unfold [3]: 0.699 ± 0.053 kcal/mol

Sequence: SAGMKIENAEITEIKVTVNEDGTVTVEMTVRLKNGYVVKVTMTFKNGKLEIKPEKVEVYKVKLPEEELSAGG [r19_84_TrROS_Hall]
- folding stability dG unfold [1]: 2.28 ± 0.22 kcal/mol
- folding stability dG unfold [2]: 1.68 ± 0.098 kcal/mol
- folding stability dG unfold [3]: 2.09 ± 0.41 kcal/mol

Sequence: SAGGMATITVTSDGVLKVTFVDPATGSPVKTIPLPLSEVEQLGAEKGSPLSLEEILKELGYPTEITLGSAGG [r13_836_JUSTAS]
- folding stability dG unfold [1]: 1.48 ± 0.008 kcal/mol
- folding stability dG unfold [2]: 1.52 ± 0.059 kcal/mol
- folding stability dG unfold [3]: 1.51 ± 0.045 kcal/mol

Sequence: SAGGSVEELRELARKLAEELGLEVVEVEVEEREDGKVTVTVTIKGPPKVEIKLEVTENEVKITEIKPSAGGS [r8_432_TrROS_Hall]
- folding stability dG unfold [1]: 3.35 ± 0.26 kcal/mol
- folding stability dG unfold [2]: 3.36 ± 0.25 kcal/mol
- folding stability dG unfold [3]: 3.42 ± 0.23 kcal/mol

Sequence: SAGGSGKIKEAVEAAIENPGKTVEVTVERPDGYPVKIKVDPKTGKITLEVIHPDGTTSRKEFEIKPSAGGSA [r2_263_TrMRF]
- folding stability dG unfold [1]: 0.669 ± 0.046 kcal/mol
- folding stability dG unfold [2]: 0.807 ± 0.071 kcal/mol
- folding stability dG unfold [3]: 0.83 ± 0.17 kcal/mol

Sequence: SMTVTLPDGTTVETSVSTEKLPNGTVVTTTTTTFTTPDGTVVPSTTVSVSPAPPTELPFTVLYRPEGSLLSA [r9_1168_JUSTAS]
- folding stability dG unfold [1]: -0.122 ± 0.16 kcal/mol
- folding stability dG unfold [2]: 0.0778 ± 0.015 kcal/mol
- folding stability dG unfold [3]: 0.00633 ± 0.083 kcal/mol

Sequence: SNPNIKVTTTSETLPDNTLRTTETNPDTGTVTETLVPTDGNGPKTVKTTTTTTDTSTGKKTITTTTTTIPVS [r1_45_JUSTAS]
- folding stability dG unfold [1]: 0.99 ± 0.02 kcal/mol
- folding stability dG unfold [2]: -1.33 ± 0.26 kcal/mol
- folding stability dG unfold [3]: 0.529 ± 0.085 kcal/mol

Sequence: SAGIKPGDPVVIKFNVPPELREKIKEAFEKPGYEYEFHPETGEVTVVAPAENIDELMKLPYIEEIVPGSAGG [r19_212_TrMRF]
- folding stability dG unfold [1]: 0.768 ± 0.1 kcal/mol
- folding stability dG unfold [2]: 0.891 ± 0.052 kcal/mol
- folding stability dG unfold [3]: 0.817 ± 0.15 kcal/mol

Sequence: SAGDWYVVIEIKHPNGRTITFVLRFDSPDELKDEILDNMRDEYGGPPEDMPITDIRVEVFDPKTGKPIWSAG [r5_482_TrROS]
- folding stability dG unfold [1]: 3.36 ± 0.09 kcal/mol
- folding stability dG unfold [2]: 2.65 ± 0.18 kcal/mol
- folding stability dG unfold [3]: 3.15 ± 0.14 kcal/mol

Sequence: SAMEALEEAGFEVVEVEEVEERELPDGKRLVRLRITVRRDGKLVELEIVVPEENEEEALRAALELLREESAG [r14_726_TrROS_Hall]
- folding stability dG unfold [1]: 4.4 ± 0.099 kcal/mol
- folding stability dG unfold [2]: 4.49 ± 0.18 kcal/mol
- folding stability dG unfold [3]: 4.44 ± 0.11 kcal/mol

Sequence: SAGGSAGGSAGGSMVITMTEEEIKALLPPGAKVKVEVVEDEETKEKFVRVEVYPAKEEESAGGSAGGSAGGS [r4_119_TrROS_Hall]
- folding stability dG unfold [1]: -0.429 ± 0.15 kcal/mol
- folding stability dG unfold [2]: 0.0616 ± 0.059 kcal/mol
- folding stability dG unfold [3]: 0.0851 ± 0.21 kcal/mol
